Results on eleven proteins are retold here after US20100015650.

The target of this series is T1, BRB1 tyrosine kinase substrate peptide.
T1 chain: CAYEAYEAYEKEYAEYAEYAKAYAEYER

B1: DDR2 (protein)
chain: RQFWQKMLEKASRRMLDDEMTVSLSLPSDSSMFNNNRSSSPSEQGSNSTYDRIFPLRPDYQEPSRLIRKLPEFAPGEEESGCSGVVKPVQPSGPEGVPHYAEADIVNLQGVTGGNTYSVPAVTMDLLSGKDVAVEEFPRKLLTFKEKLGEGQFGEVHLCEVEGMEKFKDKDFALDVSANQPVLVAVKMLRADANKNARNDFLKEIKIMSRLKDPNIIHLLAVCITDDPLCMITEYMENGDLNQFLSRHEPPNSSSSDVRTVSYTNLKFMATQIASGMKYLSSLNFVHRDLATRNCLVGKNYTIKIADFGMSRNLYSGDYYRIQGRAVLPIRWMSWESILLGKFTTASDVWAFGVTLWETFTFCQEQPYSQLSDEQVIENTGEFFRDQGRQTYLPQPAICPDSVYKLMLSCWRRDTKNRPSFQEIHLLLLQQGDE
Regarding B1, the Signal to Noise ratio with BRB1 Peptide (TR-FRET kinase assay; kinase 0.5 nM) came to 1.

B2: DDR1 (protein)
chain: RRLLSKAERRVLEEELTVHLSVPGDTILINNRPGPREPPPYQEPRPRGNPPHSAPCVPNGSALLLSNPAYRLLLATYARPPRGPGPPTPAWAKPTNTQAYSGDYMEPEKPGAPLLPPPPQNSVPHYAEADIVTLQGVTGGNTYAVPALPPGAVGDGPPRVDFPRSRLRFKEKLGEGQFGEVHLCEVDSPQDLVSLDFPLNVRKGHPLLVAVKILRPDATKNARNDFLKEVKIMSRLKDPNIIRLLGVCVQDDPLCMITDYMENGDLNQFLSAHQLEDKAAEGAPGDGQAAQGPTISYPMLLHVAAQIASGMRYLATLNFVHRDLATRNCLVGENFTIKIADFGMSRNLYAGDYYRVQGRAVLPIRWMAWECILMGKFTTASDVWAFGVTLWEVLMLCRAQPFGQLTDEQVIENAGEFFRDQGRQVYLSRPPACPQGLYELMLRCWSRESEQRPPFSQLHRFLAEDALNTV
B2: the Signal to Noise ratio with BRB1 Peptide (TR-FRET kinase assay; kinase 0.5 nM) is 1.

B3: TNK1 (protein)
chain: MLPEAGSLWLLKLLRDIQLAQFYWPILEELNVTRPEHFDFVKPEDLDGIGMGRPAQRRLSEALKRLRSGPKSKNWVYKILGGFAPEHKEPTLPSDSPRHLPEPEGGLKCLIPEGAVCRGELLGSGCFGVVHRGLWTLPSGKSVPVAVKSLRVGPEGPMGTELGDFLREVSVMMNLEHPHVLRLHGLVLGQPLQMVMELAPLGSLHARLTAPAPTPPLLVALLCLFLRQLAGAMAYLGARGLVHRDLATRNLLLASPRTIKVADFGLVRPLGGARGRYVMGGPRPIPYAWCAPESLRHGAFSSASDVWMFGVTLWEMFSGGEEPWAGVPPYLILQRLEDRARLPRPPLCSRALYSLALRCWAPHPADRPSFSHLEGLLQEAGPSEACCVRDVTEPGALRMETGDPITVIEGSSSFHSPDSTIWKGQNGRTFKVGSFPASAVTLADAGGLPATRPVHRGTPARGDQHPGSIDGDRKKANLWDAPPARGQRRNMPLERMKGISRSLESVLSLGPRPTGGGSSPPEIRQARAVPQGPPGLPPRPPLSSSSPQPSQPSRERLPWPKRKPPHNHPMGMPGARKAAALSGGLLSDPELQRKIMEVELSVHGVTHQECQTALGATGGDVVSAIRNLKVDQLFHLSSRSRADCWRILEHYQWDLSAASRYVLARP
For the protein B3, the Signal to Noise Ratio with BRB1 Peptide (TR-FRET kinase assay; kinase 1 nM) amounted to 6.8.

B4: TYK2 (protein)
chain: PHNLADVLTVNPDSPASDPTVFHKRYLKKIRDLGEGHFGKVSLYCYDPTNDGTGEMVAVKALKADCGPQHRSGWKQEIDILRTLYHEHIIKYKGCCEDQGEKSLQLVMEYVPLGSLRDYLPRHSIGLAQLLLFAQQICEGMAYLHAQHYIHRDLAARNVLLDNDRLVKIGDFGLAKAVPEGHEYYRVREDGDSPVFWYAPECLKEYKFYYASDVWSFGVTLYELLTHCDSSQSPPTKFLELIGIAQGQMTVLRLTELLERGERLPRPDKCPCEVYHLMKNCWETEASFRPTFENLIPILKTVHEKYQGQAPSVFSVC
As for B4, the Signal to Noise ratio with BRB1 Peptide (TR-FRET kinase assay; kinase 4 nM) was 7.3.

B5: EphA1 (protein)
chain: RSRRAQRQRQQRQRDRATDVDREDKLWLKPYVDLQAYEDPAQGALDFTRELDPAWLMVDTVIGEGEFGEVYRGTLRLPSQDCKTVAIKTLKDTSPGGQWWNFLREATIMGQFSHPHILHLEGVVTKRKPIMIITEFMENGALDAFLREREDQLVPGQLVAMLQGIASGMNYLSNHNYVHRDLAARNILVNQNLCCKVSDFGLTRLLDDFDGTYETQGGKIPIRWTAPEAIAHRIFTTASDVWSFGIVMWEVLSFGDKPYGEMSNQEVMKSIEDGYRLPPPVDCPAPLYELMKNCWAYDRARRPHFQKLQAHLEQLLANPHSLRTIANFDPRMTLRLPSLSGSDGIPYRTVSEWLESIRMKRYILHFHSAGLDTMECVLELTAEDLTQMGITLPGHQKRILCSIQGFKD
Take B5: the Signal to Noise ratio with BRB1 Peptide (TR-FRET kinase assay; kinase 0.5 nM) amounted to 10.8.

B6: EphA2 (protein)
chain: HRRRKNQRARQSPEDVYFSKSEQLKPLKTYVDPHTYEDPNQAVLKFTTEIHPSCVTRQKVIGAGEFGEVYKGMLKTSSGKKEVPVAIKTLKAGYTEKQRVDFLGEAGIMGQFSHHNIIRLEGVISKYKPMMIITEYMENGALDKFLREKDGEFSVLQLVGMLRGIAAGMKYLANMNYVHRDLAARNILVNSNLVCKVSDFGLSRVLEDDPEATYTTSGGKIPIRWTAPEAISYRKFTSASDVWSFGIVMWEVMTYGERPYWELSNHEVMKAINDGFRLPTPMDCPSAIYQLMMQCWQQERARRPKFADIVSILDKLIRAPDSLKTLADFDPRVSIRLPSTSGSEGVPFRTVSEWLESIKMQQYTEHFMAAGYTAIEKVVQMTNDDIKRIGVRLPGHQKRIAYSLLGLKDQVNTVGIPI
As to B6, the Signal to Noise ratio with BRB1 Peptide (TR-FRET kinase assay; kinase 0.25 nM) was determined as 26.9.

B7: ALK (protein)
chain: VYRRKHQELQAMQMELQSPEYKLSKLRTSTIMTDYNPNYCFAGKTSSISDLKEVPRKNITLIRGLGHGAFGEVYEGQVSGMPNDPSPLQVAVKTLPEVCSEQDELDFLMEALIISKFNHQNIVRCIGVSLQSLPRFILLELMAGGDLKSFLRETRPRPSQPSSLAMLDLLHVARDIACGCQYLEENHFIHRDIAARNCLLTCPGPGRVAKIGDFGMARDIYRASYYRKGGCAMLPVKWMPPEAFMEGIFTSKTDTWSFGVLLWEIFSLGYMPYPSKSNQEVLEFVTSGGRMDPPKNCPGPVYRIMTQCWQHQPEDRPNFAIILERIEYCTQDPDVINTALPIEYGPLVEEEEKVPVRPKDPEGVPPLLVSQQAKREEERSPAAPPPLPTTSSGKAAKKPTAAEISVRVPRGPAVEGGHVNMAFSQSNPPSELHKVHGSRNKPTSLWNPTYGSWFTEKPTKKNNPIAKKEPHDRGNLGLEGSCTVPPNVATGRLPGASLLLEPSSLTANMKEVPLFRLRHFPCGNVNYGYQQQGLPLEAATAPGAGHYEDTILKSKNSMNQPGP
Take B7: the Signal to Noise ratio with BRB1 Peptide (TR-FRET kinase assay; kinase 4 nM) was found to be 8.8.

B8: ZAP70 (protein)
chain: MPDPAAHLPFFYGSISRAEAEEHLKLAGMADGLFLLRQCLRSLGGYVLSLVHDVRFHHFPIERQLNGTYAIAGGKAHCGPAELCEFYSRDPDGLPCNLRKPCNRPSGLEPQPGVFDCLRDAMVRDYVRQTWKLEGEALEQAIISQAPQVEKLIATTAHERMPWYHSSLTREEAERKLYSGAQTDGKFLLRPRKEQGTYALSLIYGKTVYHYLISQDKAGKYCIPEGTKFDTLWQLVEYLKLKADGLIYCLKEACPNSSASNASGAAAPTLPAHPSTLTHPQRRIDTLNSDGYTPEPARITSPDKPRPMPMDTSVYESPYSDPEELKDKKLFLKRDNLLIADIELGCGNFGSVRQGVYRMRKKQIDVAIKVLKQGTEKADTEEMMREAQIMHQLDNPYIVRLIGVCQAEALMLVMEMAGGGPLHKFLVGKREEIPVSNVAELLHQVSMGMKYLEEKNFVHRDLAARNVLLVNRHYAKISDFGLSKALGADDSYYTARSAGKWPLKWYAPECINFRKFSSRSDVWSYGVTMWEALSYGQKPYKKMKGPEVMAFIEQGKRMECPPECPPELYALMSDCWIYKWEDRPDFLTVEQRMRACYYSLASKVEGPPGSTQKAEAACA
With B8, the Signal to Noise ratio with BRB1 Peptide (TR-FRET kinase assay; kinase 4 nM) amounted to 7.6.

B9: AXL (protein)
chain: HRRKKETRYGEVFEPTVERGELVVRYRVRKSYSRRTTEATLNSLGISEELKEKLRDVMVDRHKVALGKTLGEGEFGAVMEGQLNQDDSILKVAVKTMKIAICTRSELEDFLSEAVCMKEFDHPNVMRLIGVCFQGSERESFPAPVVILPFMKHGDLHSFLLYSRLGDQPVYLPTQMLVKFMADIASGMEYLSTKRFIHRDLAARNCMLNENMSVCVADFGLSKKIYNGDYYRQGRIAKMPVKWIAIESLADRVYTSKSDVWSFGVTMWEIATRGQTPYPGVENSEIYDYLRQGNRLKQPADCLDGLYALMSRCWELNPQDRPSFTELREDLENTLKALPPAQEPDEILYVNMDEGGGYPEPPGAAGGADPPTQPDPKDSCSCLTAAEVHPAGRYVLCPSTTPSPAQPADRGSPAAPGQEDGA
B9: the Signal to Noise ratio with BRB1 Peptide (TR-FRET kinase assay; kinase 4 nM) is 1.8.

B10: TXK (protein)
chain: MILSSYNTIQSVFCCCCCCSVQKRQMRTQISLSTDEELPEKYTQRRRPWLSQLSNKKQSNTGRVQPSKRKPLPPLPPSEVAEEKIQVKALYDFLPREPCNLALRRAEEYLILEKYNPHWWKARDRLGNEGLIPSNYVTENKITNLEIYEWYHRNITRNQAEHLLRQESKEGAFIVRDSRHLGSYTISVFMGARRSTEAAIKHYQIKKNDSGQWYVAERHAFQSIPELIWYHQHNAAGLMTRLRYPVGLMGSCLPATAGFSYEKWEIDPSELAFIKEIGSGQFGVVHLGEWRSHIQVAIKAINEGSMSEEDFIEEAKVMMKLSHSKLVQLYGVCIQRKPLYIVTEFMENGCLLNYLRENKGKLRKEMLLSVCQDICEGMEYLERNGYIHRDLAARNCLVSSTCIVKISDFGMTRYVLDDEYVSSFGAKFPIKWSPPEVFLFNKYSSKSDVWSFGVLMWEVFTEGKMPFENKSNLQVVEAISEGFRLYRPHLAPMSIYEVMYSCWHEKPEGRPTFAELLRAVTEIAETW
Consider B10, for which the Signal to Noise Ratio with BRB1 Peptide (TR-FRET kinase assay; kinase 3 nM) stood at 5.9.

B11: ACK (protein)
chain: GEGPLQSLTCLIGEKDLRLLEKLGDGSFGVVRRGEWDAPSGKTVSVAVKCLKPDVLSQPEAMDDFIREVNAMHSLDHRNLIRLYGVVLTPPMKMVTELAPLGSLLDRLRKHQGHFLLGTLSRYAVQVAEGMGYLESKRFIHRDLAARNLLLATRDLVKIGDFGLMRALPQNDDHYVMQEHRKVPFAWCAPESLKTRTFSHASDTWMFGVTLWEMFTYGQEPWIGLNGSQILHKIDKEGERLPRPEDCPQDIYNVMVQCWAHKPEDRPTFVALRDFLLEAQPTDMRALQDFEEPDKLHIQMNDVITVIEGRAENYWWRGQNTRTLCVGPFPRNVVTSVAGLSAQDISQPLQNSFIHTGHGDSDPRHCW
Take B11: the Signal to Noise Ratio with BRB1 Peptide (TR-FRET kinase assay; kinase 20 nM) was 17.3.
